Where a SMILES comes first, the peptide text is derived from it. Bridges are numbered along the chain shown (N, C = ends). Roman numbers before positions name the chains, in order. Where no end group is shown, it is not given here. The star is where a group is joined. Cam = NC(=O)C*
Key:
[1] = Thermal unfolding followed by CD spectroscopy; type: physicochemical; settings: for TM of the oxidised state: oxidised form; for TM of the oxidised state / TM of the reduced, dimeric form: ±2 for all three values; for thermal stability in words: comparator named in the value; for thermal destabilisation compared with CSP-3o: oxidised forms; for midpoint of thermal unfolding transition, TM: FIG. 3B, concentration not given
Method: (§1) Circular dichroism spectroscopy. CD measurements were made using a JASCO J-715 spectropolarimeter fitted with a Peltier temperature controller. Peptide solutions were prepared in 25 mM potassium phosphate buffer at pH 7 and were examined in 1 mm or 1 cm quartz cuvettes (with stirring). Spectra were recorded at 5° C. using 1 nm intervals, a 1 nm bandwidth and 4 sec response time. Thermal unfolding curves were recorded through 1° C. min^−1 ramps using a 2 nm bandwidth, averaging the signal for 16 s every 1° C. intervals. After baseline correction, ellipticities in mdeg were converted to molar ellipticities (deg cm^2 dmol-res-^−1) by normalising for the concentration of peptide bonds.

[2] = Circular dichroism spectroscopy (helicity); type: physicochemical; settings: for helix content judged by CD spectroscopy: pH 7, 5° C., 100 μM peptide (b86 prints 100 mM); for helicity compared with other designs (CD signal at 222 nm): pH 7, comparator named in the value
Method: as §1

[3] = target: the molecule itself; assay: sedimentation equilibrium AUC, monomer-dimer fit, pH 7, 5 C (homodimerisation)
Method: Sedimentation equilibrium experiments were conducted at 5° C. in a Beckman-Optima XL-I analytical ultracentrifuge fitted with an An-60 Ti rotor. A […] peptide solution at […] in 25 mM K phosphate buffer pH 7 containing 0.1 M KCl was equilibrated for 48 h at speeds of 40 000, 47 500/50 000 and 55 000/60 000 rpm. Data were fitted simultaneously assuming either a single ideal species or a monomer-dimer equilibrium and fixed monomer molecular weight, using routines in the Beckman-Optima XL-A/XLI-I data analysis software (v4.0). The molecular weights (Table 2) and partial specific volumes (range 0.7417 to 0.7461) of the peptides were calculated from their amino-acid sequences, and the viscosity of the buffer at 5° C. was taken to be […].

CC[C@H](C)[C@H](NC(=O)[C@H](CCCCN)NC(=O)[C@H](CCC(N)=O)NC(=O)[C@H](CCC(=O)O)NC(=O)[C@H](CC(C)C)NC(=O)[C@H](C)NC(=O)[C@H](CCCNC(=N)N)NC(=O)[C@@H](NC(=O)[C@H](CCCCN)NC(=O)[C@H](C)NC(=O)[C@H](CCC(N)=O)NC(=O)[C@H](CCCCN)NC(=O)[C@H](C)NC(=O)[C@H](CCC(N)=O)NC(=O)[C@H](CCCCN)NC(=O)[C@H](CC(C)C)NC(=O)[C@H](CCCNC(=N)N)NC(=O)[C@H](C)NC(=O)[C@@H](NC(=O)[C@H](CCC(=O)O)NC(=O)[C@H](Cc1ccc(O)cc1)NC(=O)[C@H](CCCCN)NC(=O)[C@H](CC(C)C)NC(=O)[C@H](C)NC(=O)[C@H](CCCNC(=N)N)NC(=O)[C@@H](NC(=O)[C@H](CCC(=O)O)NC(=O)CNC(=O)CNC(=O)[C@@H](N)CS)[C@@H](C)CC)[C@@H](C)CC)[C@@H](C)CC)C(=O)N[C@@H](C)C(=O)N[C@@H](C)C(=O)N[C@@H](CC(C)C)C(=O)N[C@@H](CCC(=O)O)C(=O)NCC(=O)NCC(=O)N[C@@H](CS)C(=O)O [CSP-3] (H-CGGEIRALKYEIARLKQAKQAKIRALEQKIAALEGGC-OH; N-terminus and C-terminus assumed)
TM of the oxidised state [1]: 50 °C
TM of the reduced, dimeric form [1]: 40 °C

CC[C@H](C)[C@H](NC(=O)[C@H](CCCCN)NC(=O)[C@H](CCC(N)=O)NC(=O)[C@H](CCC(=O)O)NC(=O)[C@H](CC(C)C)NC(=O)[C@H](C)NC(=O)[C@H](CCCNC(=N)N)NC(=O)[C@@H](NC(=O)[C@H](CCCCN)NC(=O)[C@H](C)NC(=O)[C@H](CCC(N)=O)NC(=O)[C@H](C)NC(=O)[C@H](C)NC(=O)[C@H](CCC(N)=O)NC(=O)[C@H](CCCCN)NC(=O)[C@H](CC(C)C)NC(=O)[C@H](CCCNC(=N)N)NC(=O)[C@H](C)NC(=O)[C@@H](NC(=O)[C@H](CCC(=O)O)NC(=O)[C@H](Cc1ccc(O)cc1)NC(=O)[C@H](CCCCN)NC(=O)[C@H](CC(C)C)NC(=O)[C@H](C)NC(=O)[C@H](CCCNC(=N)N)NC(=O)[C@@H](NC(=O)[C@H](CCC(=O)O)NC(=O)CNC(=O)CNC(=O)[C@@H](N)CS)[C@@H](C)CC)[C@@H](C)CC)[C@@H](C)CC)C(=O)N[C@@H](C)C(=O)N[C@@H](C)C(=O)N[C@@H](CC(C)C)C(=O)N[C@@H](CCC(=O)O)C(=O)NCC(=O)NCC(=O)N[C@@H](CS)C(=O)O [CSP-6] (H-CGGEIRALKYEIARLKQAAQAKIRALEQKIAALEGGC-OH; N-terminus and C-terminus assumed)
TM of the oxidised state [1]: 47 °C
TM of the reduced, dimeric form [1]: 75 °C

CC[C@H](C)[C@H](NC(=O)[C@H](CCCCN)NC(=O)[C@H](CCC(N)=O)NC(=O)[C@H](CCC(=O)O)NC(=O)[C@H](CC(C)C)NC(=O)[C@H](C)NC(=O)[C@H](CCCNC(=N)N)NC(=O)[C@H](CCCCN)NC(=O)[C@H](CCCCN)NC(=O)[C@H](C)NC(=O)[C@H](CCC(N)=O)NC(=O)[C@H](C)NC(=O)[C@H](C)NC(=O)[C@H](CCC(N)=O)NC(=O)[C@H](CCCCN)NC(=O)[C@H](CC(C)C)NC(=O)[C@H](CCCNC(=N)N)NC(=O)[C@H](C)NC(=O)[C@@H](NC(=O)[C@H](CCC(=O)O)NC(=O)[C@H](Cc1ccc(O)cc1)NC(=O)[C@H](CCCCN)NC(=O)[C@H](CC(C)C)NC(=O)[C@H](C)NC(=O)[C@H](CCCNC(=N)N)NC(=O)[C@@H](NC(=O)[C@H](CCC(=O)O)NC(=O)CNC(=O)CNC(=O)[C@@H](N)CS)[C@@H](C)CC)[C@@H](C)CC)C(=O)N[C@@H](C)C(=O)N[C@@H](C)C(=O)N[C@@H](CC(C)C)C(=O)N[C@@H](CCC(=O)O)C(=O)NCC(=O)NCC(=O)N[C@@H](CS)C(=O)O [CSP-7] (H-CGGEIRALKYEIARLKQAAQAKKRALEQKIAALEGGC-OH; N-terminus and C-terminus assumed)
TM of the oxidised state [1]: 53±2 °C
TM of the reduced, dimeric form [1]: 34±2 °C

CGGEIRALKYEIARLKQ----KKRALEQKIAALEGGC [CSP-1o] (disulfide I:1-II:16; not fully specified)
helix content judged by CD spectroscopy [2]: 20%
thermal stability in words [1]: changed little upon heating

CGGEIRALKYEIARLKQ----KKRALEQKIAALEGGC [CSP-1r] (not fully specified (some residues); cysteine pairing not given here)
helix content judged by CD spectroscopy [2]: 90%
transition midpoint, TM ([1]; 10 mM sample (so in the source)): 50 °C
transition midpoint, TM ([1]; 100 mM peptide (so in the source)): 62 °C

CGGEIRALKYEIARLKQAAQAKIRALEQKIAALEGGC [CSP-6r]
helicity compared with other designs (CD signal at 222 nm) [2]: significantly increased over the other hendecad-containing designs CSP-2r and CSP-3r
TM ([1]; 10 μM peptide): 61±2 °C
thermal stability in words [1]: significantly increased over the other hendecad-containing designs CSP-2r and CSP-3r

CGGEIRALKYEIARLKQAAQAKKRALEQKIAALEGGC [CSP-7o] (disulfide 1-37)
thermal stability in words [1]: affected less

CGGEIRALKYEIARLKQAAQAKKRALEQKIAALEGGC [CSP-7r]
helicity compared with other designs (CD signal at 222 nm) [2]: compromised both the helicity and the thermal stability
thermal stability in words [1]: compromised both the helicity and the thermal stability

CGGEIRALKYEIARLKQAKQAEIRALKQEIAALKGGC [CSP-4o] (disulfide 1-37)
helicity compared with other designs (CD signal at 222 nm) [2]: marginally less helical than the parent, CSP-3o
thermal destabilisation compared with CSP-3o [1]: ~20 °C

CGGEIRALKYEIARLKQAKQAEIRALKQEIAALKGGC [CSP-4r]
thermal stability higher than CSP-3r by ([1]; reduced forms): ~8 °C

CGGEIRALKYEIARLKQAKQAKIRALEQKIAALEGGC [CSP-3r]
helicity compared with other designs (CD signal at 222 nm) [2]: approximate three-fold improvement in helicity over CSP-2r
midpoint of thermal unfolding transition, TM [1]: 40±2 °C

CGGEIRALKYEIARLKQGGGGKKRALEQKIAALEGGC [CSP-2o] (disulfide 1-37)
helix content judged by CD spectroscopy [2]: ~40%
helicity compared with other designs (CD signal at 222 nm) [2]: approximately double the helical signal ([θ]222) of the parent peptide
midpoint of thermal unfolding transition, TM [1]: 40±2 °C

CGGEIRALKYEIARLKQGGGGKKRALEQKIAALEGGC [CSP-2r]
helix content judged by CD spectroscopy [2]: ~20%
midpoint of thermal unfolding transition, TM [1]: 22±2 °C

CGGKIRALEYKIARLEQAKQAKIRALEQKIAALEGGC [CSP-5o] (disulfide 1-37)
helicity compared with other designs (CD signal at 222 nm) [2]: marginally less helical than the parent, CSP-3o
thermal destabilisation compared with CSP-3o [1]: ~20 °C

CGGKIRALEYKIARLEQAKQAKIRALEQKIAALEGGC [CSP-5r]
thermal stability lower than the parent (CSP-3r) by ([1]; reduced forms): 12 °C

B1: CSP-3r (reduced and alkylated) (peptide)
peptide: C(Cam)GGEIRALKYEIARLKQAKQAKIRALEQKIAALEGGC(Cam)
notes: The entry is the monomer chain; the KD is for its monomer-dimer equilibrium; also called CSP-3a; design iteration 3, reduced & alkylated
Kd [3]: 191 µM

B2: CSP-1r (Coiled-coil-Switch Peptide-1, reduced and alkylated) (peptide)
peptide: C(Cam)GGEIRALKYEIARLKQKKRALEQKIAALEGGC(Cam)
notes: Synthetic designed peptide; The entry is the monomer chain; the KD is for its monomer-dimer equilibrium (parallel coiled-coil homodimer); also called design iteration 1, reduced & alkylated; CSP-2a (Maya's nomenclature)
Kd [3]: 33 µM

B3: CSP-6r (reduced and alkylated) (peptide)
peptide: C(Cam)GGEIRALKYEIARLKQAAQAKIRALEQKIAALEGGC(Cam)
notes: CSP-3 with the Lys at the h position replaced by Ala; also called design iteration 6, reduced & alkylated; CSP-7a (Maya's nomenclature)
Kd [3]: 34 µM

B4: CSP-5r (reduced and alkylated) (peptide)
peptide: C(Cam)GGKIRALEYKIARLEQAKQAKIRALEQKIAALEGGC(Cam)
notes: Anagram mutant of CSP-3 with all g:e pairs Lys:Glu; also called design iteration 5, reduced & alkylated; CSP-6a (Maya's nomenclature)
Kd [3]: 72 µM

B5: CSP-4r (reduced and alkylated) (peptide)
peptide: C(Cam)GGEIRALKYEIARLKQAKQAEIRALKQEIAALKGGC(Cam)
notes: Anagram mutant of CSP-3 with all g:e pairs Glu:Lys; also called design iteration 4, reduced & alkylated; CSP-5a (Maya's nomenclature)
Kd [3]: 77 µM

B6: CSP-7r (reduced and alkylated) (peptide)
peptide: C(Cam)GGEIRALKYEIARLKQAAQAKKRALEQKIAALEGGC(Cam)
notes: CSP-6 with the Ile at the a site after the hendecad unit replaced by Lys; also called design iteration 7, reduced & alkylated; CSP-8a (Maya's nomenclature)
Kd [3]: 506 µM

From patent publication US20060240474A1, “Peptides able to switch between two structural states and their use” (UNIVERSITY OF SUSSEX, priority 2002, published 2006)
